Bridges are numbered along the chain shown (N, C = ends). [ ]: non-standard residue; d: D form. Gly(decyl) = CCCCCCCCCC[C@H](N)C(=O)O
B1: cyclo(-dF-R-C-S-dF-R-C-S-) (peptide)
peptide: cyclo([dF]RCS[dF]RCS)
modifications: disulfide 3-7
SMILES: N=C(N)NCCC[C@@H]1NC(=O)[C@@H](Cc2ccccc2)NC(=O)[C@H](CO)NC(=O)[C@@H]2CSSC[C@H](NC1=O)C(=O)N[C@@H](CO)C(=O)N[C@H](Cc1ccccc1)C(=O)N[C@@H](CCCNC(=N)N)C(=O)N2
B2: cyclo(-A-K-ΣE-Y-K-A-ΣY-E-) (peptide)
peptide: cyclo(AK[Gly(decyl)]EYKA[Gly(decyl)]YE)
SMILES: CCCCCCCCCC[C@@H]1NC(=O)[C@H](C)NC(=O)[C@H](CCCCN)NC(=O)[C@H](Cc2ccc(O)cc2)NC(=O)[C@H](CCC(=O)O)NC(=O)[C@H](CCCCCCCCCC)NC(=O)[C@H](CCCCN)NC(=O)[C@H](C)NC(=O)[C@H](CCC(=O)O)NC(=O)[C@H](Cc2ccc(O)cc2)NC1=O
B3: cyclo(-dF-S-C-R-dF-S-C-R-) (peptide)
peptide: cyclo([dF]SCR[dF]SCR)
modifications: disulfide 3-7
SMILES: N=C(N)NCCC[C@@H]1NC(=O)[C@@H]2CSSC[C@H](NC(=O)[C@H](CO)NC(=O)[C@@H](Cc3ccccc3)NC1=O)C(=O)N[C@@H](CCCNC(=N)N)C(=O)N[C@H](Cc1ccccc1)C(=O)N[C@@H](CO)C(=O)N2
B4: cyclo(-R-E-Σ-S-R-E-R-Σ-S-E-) (peptide)
peptide: cyclo(RE[Gly(decyl)]SRER[Gly(decyl)]SE)
SMILES: CCCCCCCCCC[C@@H]1NC(=O)[C@H](CCCNC(=N)N)NC(=O)[C@H](CCC(=O)O)NC(=O)[C@H](CCCNC(=N)N)NC(=O)[C@H](CO)NC(=O)[C@H](CCCCCCCCCC)NC(=O)[C@H](CCC(=O)O)NC(=O)[C@H](CCCNC(=N)N)NC(=O)[C@H](CCC(=O)O)NC(=O)[C@H](CO)NC1=O

Assays:
[1] = tested on: J774-1 cells (a macrophage cell line); assay: Suppression of TNF secretion stimulated by LPS in a macrophage cell line, varying epitope order and stereochemistry of associating amino acids (Example 3); format: cell-based; conditions: peptide 50 ug/ml; LPS 1.25 ug/ml; LPS alone 1861.9
Experimental: • 1. Cyclic octapeptides were prepared with the following structures: cyclo(-DF-S-ΣL-R-DF-S-ΣL-R-) cyclo(-DF-S-ΣL-R-DF-S-ΣD-R-) cyclo(-DF-S-ΣD-R-DF-S-ΣD-R-) cyclo(-DF-R-ΣL-S-DF-R-ΣL-S-) cyclo(-DF-R-ΣL-S-DF-R-ΣD-S-) cyclo(-DF-R-ΣD-S-DF-R-ΣD-S-) wherein F, S and R are the epitope-forming amino acids, ΣL represents an associating amino acid which is an L-alpha aminocarboxylic acid in which the associating functional group is a side-chain residue consisting of an unbranched —C10H21; ΣD represents an associating amino acid which is a D-alpha aminocarboxylic acid in which the associating functional group is a side-chain residue consisting an unbranched —C10H21. These cyclic oligopeptides were prepared as solutions in distilled water at a concentration of 1 mg/ml. • 2. J774-1 cells (a macrophage cell line) were plated out in all the wells of a 24-well cluster plates at a seeding density of 3×10^5 cells/ml/well (1 ml RPMI 1640 culture medium per well), and incubated overnight at 37° C. in 5% CO2/air. • 3. The following day, the solutions from step 1 were administered to eighteen wells containing cells in step 2, to give three wells each with a final concentration of 50 ug/ml. The remaining wells were left untreated. The plate was incubated for a further four hours at 37 degC. • 4. Lipopolysaccharide (from E. coli strain 0111 B4) was added to the wells receiving the octapeptide solutions, as well as three of the wells receiving no peptide. The concentration of lipopolysaccharide was 1.25 ug/ml. • 5. The plate was incubated overnight, and the following day the supernatants were assayed for TNF using a commercial ELISA kit.

thrombin [2] = molecular target: thrombin (Homo sapiens, UniProt P00734); assay: Inhibition of enzyme activity of thrombin, fluorogenic substrate (Example 7); format: biochemical
Experimental: 1. Cyclic oligopeptides of the following structures were synthesised as previously described, and prepared in complexed form with cyclodextrin at concentration of 1 mg/ml on Hanks Balanced Salts Solution using the procedure outlined in example 6. (i) cyclo(-R-E-Σ-S-R-E-R-Σ-S-E-) (ii) cyclo(-A-K-ΣE-Y-K-A-ΣY-E-) (iii) cyclo(-dF-R-C-S-dF-R-C-S-) (iv) cyclo(-dF-S-C-R-dF-S-C-R-)
2. In wells of a […] microplate, 20 ul of thrombin solution (0.01 mg/ml) were dispensed, and mixed with 60 ul of cyclic oligopeptide solution
3. 20 ul of the substrate boc-beta-benzyl-Asp-Pro-Arg-7-amido-4-methylcoumarin hydrochloride (0.01 mg/ml) was added to each well, and the time course of generation of […] was measured.

[3] = tested on: J774A.1 cells (a macrophage cell line); assay: Suppression of LPS-stimulated TNF secretion by cyclic oligopeptides containing two different epitopes (Example 8); format: cell-based; conditions: LPS 0.1 ug/ml
Experimental: • 1. Two cyclic oligopeptides were prepared with the following structures: (i) cyclo(-dF-S-Σ-Q-dL-S-Σ-R-) • and (ii) cyclo(-dF-S-Σ-L-dQ-S-Σ-R) • All amino acids are in the L form unless indicated otherwise. • All amino acids are linked by peptide bonds. wherein Q, L, S, R and F represent the epitope-forming amino acids and Σ represents the associating functional group borne on the associating amino acid wherein the associating amino acid is an L-alpha aminocarboxylic acid and the associating functional group is a side-chain residue consisting of a straight aliphatic chain containing ten carbon atoms.
These cyclic oligopeptides were prepared as solutions in transcutol/cyclodextrin, as described in example 4, to give a final concentration of peptide of 1 mg/ml, and cyclodextrin at 20 mg/ml. • 2. J774A.1 cells (a macrophage cell line) were plated out in all the wells of three 24-well cluster plates at a seeding density of 3×10^5 cells/ml/well (1 ml RPMI 1640 culture medium per well), and incubated overnight at 37° C. in 5% CO2/air. • 3. The following day, the solutions from step 1 were administered to wells containing cells in step 2, to give three wells each with a final concentration of 50, 25, 12.5, 6.25 or 3.125 ug/ml of cyclic oligopeptide. Additional wells containing cyclodextrin at 1, 0.5, 0.25, 0.125 and 0.0625 mg/ml were also prepared. The remaining wells were left untreated. The plate was incubated for a further four hours at 37 degC. • 4. Lipopolysaccharide (from E. coli strain 0111 B4) was added to the wells receiving the octapeptide solution, as well as three of the wells receiving no peptide. The final concentration of lipopolysaccharide was 0.1 ug/ml. • 5. The plate was incubated overnight, and the following day the supernatants were assayed for TNF using a commercial ELISA kit.

thrombin [4] = assay: cell-based or functional assay
[5] = time 2.0 minutes, enzyme alone 770.9, lower = more inhibition
[6] = time 5.0 minutes, enzyme alone 1821.1
[7] = time 10.0 minutes, enzyme alone 2163.5
[8] = time 15.0 minutes, enzyme alone 2253.2
[9] = time 20.0 minutes, enzyme alone 2345.8
[10] = time 25.0 minutes, enzyme alone 2359.0

Molecule | Concentration of TNF [1] | Inhibition of Thrombin proteolytic activity (Fluorescence Units - Arbitrary Units) at 2.0 minutes; control (enzyme alone) 770.9 (Fluorescence Units - Arbitrary Units) (thrombin [4]) | Inhibition of Thrombin proteolytic activity (Fluorescence Units - Arbitrary Units) at 5.0 minutes; control (enzyme alone) 1821.1 (Fluorescence Units - Arbitrary Units) (thrombin [4]) | Inhibition of Thrombin proteolytic activity (Fluorescence Units - Arbitrary Units) at 10.0 minutes; control (enzyme alone) 2163.5 (Fluorescence Units - Arbitrary Units) (thrombin [4]) | Inhibition of Thrombin proteolytic activity (Fluorescence Units - Arbitrary Units) at 15.0 minutes; control (enzyme alone) 2253.2 (Fluorescence Units - Arbitrary Units) (thrombin [4]) | Inhibition of Thrombin proteolytic activity (Fluorescence Units - Arbitrary Units) at 20.0 minutes; control (enzyme alone) 2345.8 (Fluorescence Units - Arbitrary Units) (thrombin [4]) | Inhibition of Thrombin proteolytic activity (Fluorescence Units - Arbitrary Units) at 25.0 minutes; control (enzyme alone) 2359.0 (Fluorescence Units - Arbitrary Units) (thrombin [4]) | further results
cyclo(-DF-R-ΣD-S-DF-R-ΣD-S-) | 1573.3 pg/mL |  |  |  |  |  |  | 
cyclo(-DF-R-ΣL-S-DF-R-ΣD-S-) | 1625.2 pg/mL |  |  |  |  |  |  | 
cyclo(-DF-R-ΣL-S-DF-R-ΣL-S-) | 1990.4 pg/mL |  |  |  |  |  |  | 
cyclo(-DF-S-ΣD-R-DF-S-ΣD-R-) | 1438.0 pg/mL |  |  |  |  |  |  | 
cyclo(-DF-S-ΣL-R-DF-S-ΣD-R-) | 987.1 pg/mL |  |  |  |  |  |  | 
cyclo(-dF-R-C-S-dF-R-C-S-) (cyclo([dF]RCS[dF]RCS); disulfide 3-7; SMILES N=C(N)NCCC[C@@H]1NC(=O)[C@@H](Cc2ccccc2)NC(=O)[C@H](CO)NC(=O)[C@@H]2CSSC[C@H](NC1=O)C(=O)N[C@@H](CO)C(=O)N[C@H](Cc1ccccc1)C(=O)N[C@@H](CCCNC(=N)N)C(=O)N2) [Example 7 (iii), cysteines in the ring are oxidised to form an internal bridge] |  |  |  |  |  |  |  | Thrombin proteolytic activity (Fluorescence Units - Arbitrary Units) (thrombin [2]; [5]): 634.5 Arbitrary Units; Thrombin proteolytic activity (Fluorescence Units - Arbitrary Units) (thrombin [2]; [6]): 1368.8 Arbitrary Units; Thrombin proteolytic activity (Fluorescence Units - Arbitrary Units) (thrombin [2]; [7]): 1786.9 Arbitrary Units; Thrombin proteolytic activity (Fluorescence Units - Arbitrary Units) (thrombin [2]; [8]): 1980.7 Arbitrary Units; Thrombin proteolytic activity (Fluorescence Units - Arbitrary Units) (thrombin [2]; [9]): 2107.4 Arbitrary Units; Thrombin proteolytic activity (Fluorescence Units - Arbitrary Units) (thrombin [2]; [10]): 2159.7 Arbitrary Units
cyclo(-dF-S-C-R-dF-S-C-R-) (cyclo([dF]SCR[dF]SCR); disulfide 3-7; SMILES N=C(N)NCCC[C@@H]1NC(=O)[C@@H]2CSSC[C@H](NC(=O)[C@H](CO)NC(=O)[C@@H](Cc3ccccc3)NC1=O)C(=O)N[C@@H](CCCNC(=N)N)C(=O)N[C@H](Cc1ccccc1)C(=O)N[C@@H](CO)C(=O)N2) [Example 7 (iv), cysteines in the ring are oxidised to form an internal bridge] |  |  |  |  |  |  |  | Thrombin proteolytic activity (Fluorescence Units - Arbitrary Units) (thrombin [2]; [5]): 523.2 Arbitrary Units; Thrombin proteolytic activity (Fluorescence Units - Arbitrary Units) (thrombin [2]; [6]): 1205.3 Arbitrary Units; Thrombin proteolytic activity (Fluorescence Units - Arbitrary Units) (thrombin [2]; [7]): 1586.9 Arbitrary Units; Thrombin proteolytic activity (Fluorescence Units - Arbitrary Units) (thrombin [2]; [8]): 1751.7 Arbitrary Units; Thrombin proteolytic activity (Fluorescence Units - Arbitrary Units) (thrombin [2]; [9]): 1843.1 Arbitrary Units; Thrombin proteolytic activity (Fluorescence Units - Arbitrary Units) (thrombin [2]; [10]): 1864.8 Arbitrary Units
cyclo(-dF-S-Σ-L-dQ-S-Σ-R) [Example 8 (ii)] |  |  |  |  |  |  |  | Thrombin proteolytic activity (Fluorescence Units - Arbitrary Units) (thrombin [2]; [5]): 410.8 Arbitrary Units; Thrombin proteolytic activity (Fluorescence Units - Arbitrary Units) (thrombin [2]; [6]): 816.4 Arbitrary Units; Thrombin proteolytic activity (Fluorescence Units - Arbitrary Units) (thrombin [2]; [7]): 1189.4 Arbitrary Units; Thrombin proteolytic activity (Fluorescence Units - Arbitrary Units) (thrombin [2]; [8]): 1398.6 Arbitrary Units; Thrombin proteolytic activity (Fluorescence Units - Arbitrary Units) (thrombin [2]; [9]): 1592.1 Arbitrary Units; Thrombin proteolytic activity (Fluorescence Units - Arbitrary Units) (thrombin [2]; [10]): 1673.2 Arbitrary Units; TNF concentration ([3]; peptide 3.125 ug/ml, 2856 = maximum detectable limit): 2648 ± 43 pg/mL; TNF concentration ([3]; peptide 6.25 ug/ml): 2325 ± 67 pg/mL; TNF concentration ([3]; peptide 12.5 ug/ml): 1748 ± 20 pg/mL; TNF concentration ([3]; peptide 25 ug/ml): 1437 ± 85 pg/mL; TNF concentration ([3]; peptide 50 ug/ml): 1081 ± 142 pg/mL
B1 |  | 634 | 1370 | 1790 | 1980 | 2110 | 2160 | 
B2 |  | 411 | 816 | 1190 | 1400 | 1590 | 1670 | 
B3 |  | 523 | 1210 | 1590 | 1750 | 1840 | 1860 | 
B4 |  | 411 | 816 | 1190 | 1400 | 1590 | 1670 | 

Source: US9096650B2, “Cyclic oligopeptides for binding to a target ligand” (LEXCICON LIMITED, priority 2006, dated 2015)
